Experiments:
[1] = Secondary structure by Fourier Transform Infrared Spectroscopy (FTIR); format: physicochemical; settings: for alpha helix percent 1657 cm^-1 / beta sheet character percent 1624 + 1696 cm^-1: Samples 1-5 before and 1A-5A after base excursion pH 12.3, Table 2; for 1624 + 1696 cm^-1 total beta sheet, % / 1657 cm^-1 Alpha helix, %: purified, lyophilized batches, Table 1; for percent alpha helix content / percent beta sheet content: Table 3, pH 10.5 excursion experiment
Description: Four different batches of purified, lyophilized Val-8 GLP-1(7-37)OH were analyzed for secondary structure characteristics by Fourier Transform Infra-red Spectroscopy (FTIR) to assess alpha helix and beta sheet content of the preparations. Deconvolution was done on the Amide I region (1750-1600 cm^−1) using BioRad Win-IR Pro Software version 2.5. The results are shown below in the Table 1:
Each of Samples 1-5 was measured for secondary structure characteristics by Fourier Transform Infrared Spectroscopy (FTIR). In addition, each Sample 1-5 was placed into 20 mM phosphate solution (pH 7.2) and the pH raised to 12.3 by addition of 1N sodium hydroxide for no more than 3 minutes. All samples then dissolved and the solutions became clear. The pH of each solution was then adjusted to 7.0 by addition of 1N hydrochloric acid. Samples 1A-5A, obtained from Samples 1-5, respectively, were then obtained by lyophilization of the solutions and dried in vacuo. The secondary structural characteristics of Samples 1A-5A were assessed by FTIR. The results of the FTIR analysis of Samples 1-5 and 1A-5A are shown below in Table 2:
In another example of the effects of base excursion on secondary structure, a purified, lyophilized sample of Val^8-GLP-1(7-37)OH purified by reversed chromatography was either lyophilized (0.1 gram) or precipitated by addition of sufficient 3.0 M sodium dihydrogen phosphate (pH 3.80) to result in a 0.6 M phosphate solution. The resultant precipitate was washed with 10 mM sodium acetate at pH 5.5 and the washed precipitate was dried in vacuo. A second portion of the washed precipitate was solubilized by raising the pH of the material to 10.5 for 30 minutes at room temperature by addition of 1N sodium hydroxide. The pH of that solution was then reduced to 7.0 by addition of 1.0 N hydrochloric acid and the solution was then lyophilized. The secondary structure of the three samples was determined by FTIR.

[2] = physchem; format: physicochemical
Description: Val^8-GLP-1(7-37)OH (1 gram) lyophilized powder was dissolved in 25 mM ammonium bicarbonate, pH 8.0 (100 ml). The solution was stirred with a TEFLON stir bar at about 200 rpm at 21° C. (ambient temperature) for 16 hours. At varying times, usually within 30 minutes, the solution became hazy. On continued stirring, the haze became visibly more dense. The kinetics of the turbidity were measured by rate of formation of turbidity, i.e. absorbance at 340 nm. The precipitated protein was harvested either by filtration, e.g. Whatman 1 filter disc, or centrifugation. The supernatant was assayed for protein content either by Biuret Colorimetric Assay obtained from Pierce (Rockford, Ill.) or UV absorbance at 280 nm. By either method, the protein precipitate constituted in excess of 90% of the starting material, i.e. there was less than 10% of the protein remaining in the supernatant fraction. The collected precipitate was dried in vacuo, i.e. in a lyophilizer. The resultant precipitated (0.96 grams) material was soluble in 20 mM phosphate at pH 7.2 at less than 0.01 mg/ml. Solubility was tested by suspension of the solid in the buffer, adjustment of pH, if necessary, and filtration through a 0.2 micron filter. The protein content of the filtrate was tested by either Biuret Colorimetric Assay, UV absorbance at 280 nm, or by high pressure liquid chromatography analysis (HPLC) analysis. […]

## 4A: Sample 4 after pH 12.3 excursion, neutralized to 7.0 and lyophilized [Sample 4A]
[1]
  alpha helix percent 1657 cm^-1: 86.0%
  beta sheet character percent 1624 + 1696 cm^-1: none observed

## 3A: Sample 3 after pH 12.3 excursion, neutralized to 7.0 and lyophilized [Sample 3A]
[1]
  alpha helix percent 1657 cm^-1: 62.2%
  beta sheet character percent 1624 + 1696 cm^-1: 23.7%

## Sample 1: Val^8-GLP-1(7-37)OH isoelectric precipitate at pH 5.5 from 10 mM acetic acid
[1]
  alpha helix percent 1657 cm^-1: 24.9%
  beta sheet character percent 1624 + 1696 cm^-1: 69.8%
  1624 + 1696 cm^-1 total beta sheet, %: 31.4%
  1657 cm^-1 Alpha helix, %: 62.7%

## Lyophilized mainstream: Val^8-GLP-1(7-37)OH purified by reversed chromatography and lyophilized
[1]
  percent alpha helix content: 71%
  percent beta sheet content: 16%

## Sample 2: Val^8-GLP-1(7-37)OH isoelectric precipitate approaching pH 5.5 from the alkaline side
[1]
  alpha helix percent 1657 cm^-1: 51.9%
  beta sheet character percent 1624 + 1696 cm^-1: 40.5%
  1624 + 1696 cm^-1 total beta sheet, %: 29.3%
  1657 cm^-1 Alpha helix, %: 62.8%

## 2A: Sample 2 after pH 12.3 excursion, neutralized to 7.0 and lyophilized [Sample 2A]
[1]
  alpha helix percent 1657 cm^-1: 85.9%
  beta sheet character percent 1624 + 1696 cm^-1: none observed

## Sample 5: precipitated fraction of Val^8-GLP-1(7-37)OH stirred in 10 mM phosphate pH 7.2
[1]
  alpha helix percent 1657 cm^-1: 12.9%
  beta sheet character percent 1624 + 1696 cm^-1: 57.3%

## Phosphate precipitate: Val^8-GLP-1(7-37)OH precipitated in 0.6 M phosphate, washed and dried in vacuo
[1]
  percent alpha helix content: 57%
  percent beta sheet content: 35%

## CC[C@H](C)[C@H](NC(=O)[C@H](Cc1ccccc1)NC(=O)[C@H](CCC(=O)O)NC(=O)[C@H](CCCCN)NC(=O)[C@H](C)NC(=O)[C@H](C)NC(=O)[C@H](CCC(N)=O)NC(=O)CNC(=O)[C@H](CCC(=O)O)NC(=O)[C@H](CC(C)C)NC(=O)[C@H](Cc1ccc(O)cc1)NC(=O)[C@H](CO)NC(=O)[C@H](CO)NC(=O)[C@@H](NC(=O)[C@H](CC(=O)O)NC(=O)[C@H](CO)NC(=O)[C@@H](NC(=O)[C@H](Cc1ccccc1)NC(=O)[C@@H](NC(=O)CNC(=O)[C@H](CCC(=O)O)NC(=O)[C@H](C)NC(=O)[C@@H](N)Cc1c[nH]cn1)[C@@H](C)O)[C@@H](C)O)C(C)C)C(=O)N[C@@H](C)C(=O)N[C@@H](Cc1c[nH]c2ccccc12)C(=O)N[C@@H](CC(C)C)C(=O)N[C@H](C(=O)N[C@@H](CCCCN)C(=O)NCC(=O)N[C@@H](CCCN=C(N)N)C(=O)NCC(=O)O)C(C)C [GLP-1(7-37)OH]
[2]; solubility
  solubility thermodynamic: < 100 µg/mL
[2]; solubility (usually)
  solubility thermodynamic: < 50 µg/mL

## Sample 4: soluble fraction of Val^8-GLP-1(7-37)OH stirred in 10 mM phosphate pH 7.2
[1]
  alpha helix percent 1657 cm^-1: 75.8%
  beta sheet character percent 1624 + 1696 cm^-1: 14.7%
  1624 + 1696 cm^-1 total beta sheet, %: 28.9%
  1657 cm^-1 Alpha helix, %: 63.6%

## 5A: Sample 5 after pH 12.3 excursion, neutralized to 7.0 and lyophilized [Sample 5A]
[1]
  alpha helix percent 1657 cm^-1: 90.6%
  beta sheet character percent 1624 + 1696 cm^-1: none observed

## pH 10.5 excursion: washed phosphate precipitate solubilized at pH 10.5 for 30 minutes, reduced to pH 7.0, lyophilized
[1]
  percent alpha helix content: 71%
  percent beta sheet content: 13%

## Sample 3: gelled Val^8-GLP-1(7-37)OH from acetic acid/25% acetonitrile incubated at 4 C for 3.1 months
[1]
  alpha helix percent 1657 cm^-1: 25.5%
  beta sheet character percent 1624 + 1696 cm^-1: 70.0%
  1624 + 1696 cm^-1 total beta sheet, %: 30.6%
  1657 cm^-1 Alpha helix, %: 63.6%

Source: patent US8455433B2, “Process for solubilizing glucagon-like peptide 1 compounds” (Eli Lilly and Company, priority 2000, dated 2013)
